Experimental findings from patent US20260167959A1, “APTAZYME-BASED REGULATABLE GENE EXPRESSION SYSTEMS” (REJUVENATE BIO INC, priority 2022, published 2026) are described below.

B1: RA422 (nucleic acid)
DNA: GCGCGTCCTGGATTCGCGGAAACGCGTACATCCAGCTGACGAGTCCCAAATAGGACGACGGAATACCAGCATCGTCTTGATGCCCTTGGAAGTCCGAACGCGC
modifications: expressed or natural sequence
B2: RA428 (nucleic acid)
DNA: GCGCGTCCTGGATTCGCGGAAACGCGTACATCCAGCTGACGAGTCCGAGAATACCAGCATCGTCTTGATGCCCTTGGAAGTCTCCAAATAGGACGAAACGCGC
modifications: expressed or natural sequence
B3: RA433 (nucleic acid)
DNA: GCGCGTCCTGGATTCGCGGAAACGCGTACATCCAGCTGACGAGTCCCAAATAGGAAGTGATACCAGCATCGTCTTGATGCCCTTGGCAGCACTCGAAACGCGC
modifications: expressed or natural sequence
B4: RA436 (nucleic acid)
DNA: GCGCGTCCTGGATTCGCGGAAACGCGTACATCCAGCGGAATACCAGCATCGTCTTGATGCCCTTGGAAGTCCGCTGACGAGTCCCAAATAGGACGAAACGCGC
modifications: expressed or natural sequence
B5: RA417 (nucleic acid)
DNA: GCGCGTCCTGGATTCGCGGAAACGCGTACATCCAGCTGACGAGTCCCAAATCGGAATACCAGCATCGTCTTGATGCCCTTGGAAGTCCGAGGACGAAACGCGC
modifications: expressed or natural sequence
B6: RA430 (nucleic acid)
DNA: GCGCGTCCTGGATTCGCGGAAACGCGTACATCCAGCTGAGAGAATACCAGCATCGTCTTGATGCCCTTGGAAGTCTCCGAGTCCCAAATAGGACGAAACGCGC
modifications: expressed or natural sequence
B7: RA424 (nucleic acid)
DNA: GCGCGTCCTGGATTCGCGGAAACGCGTACATCCAGCTGCGAGAATACCAGCATCGTCTTGATGCCCTTGGAAGTCTCGACGAGTCCCAAATAGGACGAAACGCGC
modifications: expressed or natural sequence
B8: RA416 (nucleic acid)
DNA: GCGCGTCCTGGACGGAATACCAGCATCGTCTTGATGCCCTTGGAAGTCCGTTCGCGGAAACGCGTACATCCAGCTGACGAGTCCCAAATAGGACGAAACGCGC
modifications: expressed or natural sequence
B9: RA425 (nucleic acid)
DNA: GCGCGTCCTGGATTCGCGGAAACGCGTACAGGAATACCAGCATCGTCTTGATGCCCTTGGAAGTCCTCCAGCTGACGAGTCCCAAATAGGACGAAACGCGC
modifications: expressed or natural sequence
B10: RA421 (nucleic acid)
DNA: GCGCGTCCTGGATTCGCGGAAAGAGAATACCAGCATCGTCTTGATGCCCTTGGAAGTCTCCGCGTACATCCAGCTGACGAGTCCCAAATAGGACGAAACGCGC
modifications: expressed or natural sequence
B11: RA418 (nucleic acid)
DNA: GCGCGTCCTGGATTCGCGGAAACGCGTACATCGAGAATACCAGCATCGTCTTGATGCCCTTGGAAGTCTCGCCAGCTGACGAGTCCCAAATAGGACGAAACGCGC
modifications: expressed or natural sequence
B12: RA423 (nucleic acid)
DNA: GCGCGTCCTGGATTCGCGGAAACGCGTACATCCAGCTGACGAGCCGGAATACCAGCATCGTCTTGATGCCCTTGGAAGTCCGGTCCCAAATAGGACGAAACGCGC
modifications: expressed or natural sequence
B13: RA431 (nucleic acid)
DNA: GCGCGTCCTGGATTCGCGGAAACGCGTACATCCACGGAATACCAGCATCGTCTTGATGCCCTTGGAAGTCCGGCTGACGAGTCCCAAATAGGACGAAACGCGC
modifications: expressed or natural sequence
B14: RA435 (nucleic acid)
DNA: GCGCGTCCTGGATTCGCGGAAACGCGTACATCCAGCTGACGAGTCCCAAACGGAATACCAGCATCGTCTTGATGCCCTTGGAAGTCCGTAGGACGAAACGCGC
modifications: expressed or natural sequence
B15: RA420 (nucleic acid)
DNA: GCGCGTCCTGGATTCGCGGAAACGGAGAATACCAGCATCGTCTTGATGCCCTTGGAAGTCTCCGTACATCCAGCTGACGAGTCCCAAATAGGACGAAACGCGC
modifications: expressed or natural sequence
B16: RA414 (nucleic acid)
DNA: GCGCGTCCTGGATTCGCGGAAACGCGTACATCCAGCTGACGAGTCCCCCGGAATACCAGCATCGTCTTGATGCCCTTGGAAGTCCGGAAATAGGACGAAACGCGC
modifications: expressed or natural sequence
B17: RA413 (nucleic acid)
DNA: GCGCGTCCTGGATTCGCGGAAACGCGTAGAATACCAGCATCGTCTTGATGCCCTTGGAAGTCTACATCCAGCTGACGAGTCCCAAATAGGACGAAACGCGC
modifications: expressed or natural sequence
B18: RA432 (nucleic acid)
DNA: GCGCGTCCTGGATTCGCGGAAACGCGTACATCCAGCTGACGAGTCCCACCGGAATACCAGCATCGTCTTGATGCCCTTGGAAGTCCGGAATAGGACGAAACGCGC
modifications: expressed or natural sequence
B19: RA429 (nucleic acid)
DNA: GCGCGTCCTGGATTCGCGGGGAATACCAGCATCGTCTTGATGCCCTTGGAAGTCCAAACGCGTACATCCAGCTGACGAGTCCCAAATAGGACGAAACGCGC
modifications: expressed or natural sequence
B20: RA427 (nucleic acid)
DNA: GCGCGTCCTGCCGGAATACCAGCATCGTCTTGATGCCCTTGGAAGTCCGGGATTCGCGGAAACGCGTACATCCAGCTGACGAGTCCCAAATAGGACGAAACGCGC
modifications: expressed or natural sequence
B21: RA412 (nucleic acid)
DNA: GCGCGTCCTGGATTCGCGGAGTGATACCAGCATCGTCTTGATGCCCTTGGCAGCACTAAACGCGTACATCCAGCTGACGAGTCCCAAATAGGACGAAACGCGC
modifications: expressed or natural sequence
B22: RA434 (nucleic acid)
DNA: GCGCGTCCAGAATACCAGCATCGTCTTGATGCCCTTGGAAGTCTTGGATTCGCGGAAACGCGTACATCCAGCTGACGAGTCCCAAATAGGACGAAACGCGC
modifications: expressed or natural sequence
B23: RA426 (nucleic acid)
DNA: GCGCGTCCTGGATTCGCGGAAACGCGTACATCCAGCTGACGAGTCCCAAATAGGACGCCGGAATACCAGCATCGTCTTGATGCCCTTGGAAGTCCGGAAACGCGC
modifications: expressed or natural sequence
B24: RA419 (nucleic acid)
DNA: GCGCGTCCTGGATTCGCGGAAACGCGTACATCCAGCTGACGAGTCCCAAATAGGACGAAAGAATACCAGCATCGTCTTGATGCCCTTGGAAGTCTACGCGC
modifications: expressed or natural sequence
B25: RA415 (nucleic acid)
DNA: GCGCGTCCTGGATTCGCGGACCGGAATACCAGCATCGTCTTGATGCCCTTGGAAGTCCGGAACGCGTACATCCAGCTGACGAGTCCCAAATAGGACGAAACGCGC
modifications: expressed or natural sequence
B26: RA041 (nucleic acid)
DNA: GCGCGTCCTGGATTCGCGGAAACGCGAGTGATACCAGCATCGTCTTGATGCCCTTGGCAGCACTTACATCCAGCTGACGAGTCCCAAATAGGACGAAACGCGC
modifications: expressed or natural sequence
B27: RA042 (nucleic acid)
DNA: GCGCGTCCTGGATTCGCGGAAACGCGTACATCCAAGAATACCAGCATCGTCTTGATGCCCTTGGAAGTCTGCTGACGAGTCCCAAATAGGACGAAACGCGC
modifications: expressed or natural sequence

The subject of the first data set is Renilla luciferase RNA. Description: Barcoded aptazyme variant library screen: un-cleaved Renilla luciferase RNA by barcode read counts, HEK293-T cells. It counts as cell-based. As to conditions: un-cleaved Renilla luciferase RNA by barcode read counts; with 1 mM theophylline (ON) over without theophylline (OFF); HEK293-T cells; triplicate. The method, boiled down: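 Barcode sequencing of cDNA versus DNA, normalized per aptazyme, gave the un-cleaved Renilla luciferase RNA fraction and fold-change with versus without theophylline (triplicates). Library: T3H48 ribozyme with one of seven theophylline aptamer variants inserted at each position, placed in the Renilla 3′ UTR of a dual-luciferase vector.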
In the case of B1, the “Fold change in RNA expression between the ON state and the OFF state” value (“Fold change” below) was found to be 0.6.
Take B2: the “Fold change” value is 0.6.
In the case of B3, the “Fold change” value is 0.6.
Regarding B4, the “Fold change” value was found to be 0.6.
In the case of B5, the “Fold change” value is listed as 0.7.
Same read-out and setting: with B6 the figure was 0.6.
On the same count and under the same terms, with B7 the figure was 0.6; with B8, 0.7.
Regarding B9, the “Fold change” value came out at 0.6.
For B10, the “Fold change” value stood at 0.6.
As for B11, the “Fold change” value came to 0.7.
For the molecule B12, the “Fold change” value is 0.6.
Turning to B13, the “Fold change” value was 0.6.
B14: the “Fold change” value was determined as 0.6.
On to B15, for which the “Fold change” value was 0.6.
As for B16, the “Fold change” value is 0.7.
On the same count and under the same terms, with B17 the figure was 0.7; with B18, 0.6; with B19, 0.6.
On the same count and under the same terms, with B20 the figure was 0.6; with B21, 0.7; with B22, 0.6.
As for B23, the “Fold change” value is recorded as 0.6.
Regarding B24, the “Fold change” value was found to be 0.7.
In the case of B25, the “Fold change” value turned out to be 0.7.

The data set is the same for the next values; noted with them: un-cleaved Renilla luciferase RNA, HEK293-T cells cultured with 1 mM theophylline (ON) over without theophylline (OFF); barcode read counts, triplicate.
Regarding B26, the “Fold change” value worked out at 2.1 fold.
Turning to B27, the “Fold change” value was 2.1 fold.
